# Assay results as given in patent US5770577.
# Molecular target: trkB
row,Activ. in vitro (MTS tetrazolium uptake by PC12/pcDneo-trkB#18 cells),Substance
1,101%,monoMPEG(6 kDa)-BDNF conjugate with site of attachment at the N-terminal alpha-amino group(s) (Example 1) (ligand)
2,73%,monoMPEG(20 kDa)-BDNF conjugate with site of attachment at the N-terminal alpha-amino group(s) (Example 2) (ligand)
3,25%,"polyMPEG(6 kDa)-BDNF conjugates with MPEG aldehydes, six-fold molar excess (Example 4) (ligand)"
4,100%,r-metHuBDNF (ligand)
